Assay results from article PMC9508154.

Target: eIF5-CTD_(-CTT)-EE, phosphomimetic mutant S389E/S390E (human) (UniProt P55010)
Assay: NMR titration

Chain of UniProt P55010 (P55010 232-431 S389E/S390E): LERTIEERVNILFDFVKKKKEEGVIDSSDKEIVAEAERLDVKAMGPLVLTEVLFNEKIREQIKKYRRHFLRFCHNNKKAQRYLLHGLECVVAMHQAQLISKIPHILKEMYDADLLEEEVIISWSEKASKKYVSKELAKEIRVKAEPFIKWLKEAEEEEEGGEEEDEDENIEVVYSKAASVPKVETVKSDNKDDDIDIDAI

| Substance | % CSP reduction at E17 of eIF1A-ΔC bound to m7 | % CSP reduction at G5 of eIF1A-ΔC bound to m7 | % CSP reduction at L25 of eIF1A-ΔC bound to m7 | % CSP reduction at V26 of eIF1A-ΔC bound to m7 | % CSP reduction at W69 of eIF1A-ΔC bound to m7 | % CSP reduction at Y83 of eIF1A-ΔC bound to m7 |
| --- | --- | --- | --- | --- | --- | --- |
| N-terminal tail of the β subunit of eIF2 (eIF2β-NTT) (domain or fragment) | 83% | 95% | 62% | 38% | 63% | – |
| eIF1A N-terminal tail (eIF1A-NTT) (domain or fragment) | 32% | 40% | 20% | 24% | 22% | 18% |
